Test results reported in article PMC7889586, “Effects of Conserved Wedge Domain Residues on DNA Binding Activity of Deinococcus radiodurans RecG Helicase”.

How the values were obtained:
[1] = biological target: T1, DrRecG-WD WT (Deinococcus radiodurans R1, UniProt Q9RT50 158-235); assay: EMSA; 100 nM HJ; near saturation at 160 nM protein; 5 mM EDTA; 50 mM Tris-HCl pH 8.0, 5 mM EDTA, 1 mM DTT, 100 ug/ml BSA, 6% glycerol, on ice 15 min; 100 nM HJ; 6% polyacrylamide gel at room temperature; conditions: protein: recombinant; tags: MBP (N-terminal fusion, pMAL-c2x); four-way junction of 4 strands, 1 copy each
T1 sequence: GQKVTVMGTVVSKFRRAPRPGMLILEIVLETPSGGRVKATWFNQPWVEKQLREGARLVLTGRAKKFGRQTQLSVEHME

[2] = biological target: T2, EcRecG-WD QPW (Escherichia coli MG1655, UniProt P24230 59-135, F99Q;S100P;A101W); assay: EMSA; 100 nM HJ; significantly increased vs EcRecG-WD WT; 5 mM EDTA; 50 mM Tris-HCl pH 8.0, 5 mM EDTA, 1 mM DTT, 100 ug/ml BSA, 6% glycerol, on ice 15 min; 100 nM HJ; 6% polyacrylamide gel at room temperature; conditions: protein: recombinant; tags: MBP (N-terminal fusion, pMAL-c2x); four-way junction of 4 strands, 1 copy each
T2 sequence: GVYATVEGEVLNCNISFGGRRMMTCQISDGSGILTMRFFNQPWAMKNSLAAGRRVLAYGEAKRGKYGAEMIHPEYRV

B1: Holliday junction (oligos 1-4) (structured_DNA)
DNA 1: GTCGGATCCTCTAGACAGCTCCATGATCACTGGCACTGGTAGAATTCGGC
DNA 2: CAACGTCATAGACGATTACATTGCTACATGGAGCTGTCTAGAGGATCCGA
DNA 3: TGCCGAATTCTACCAGTGCCAGTGATGGACATCTTTGCCACGTTGACCC
DNA 4: TGGGTCAACGTGGGCAAGATGTCCTAGCAATGTAATCGTCTATGACGT
B1: binds [1]; binds [2].
